Experimental data published in patent US20130280279A1, “PHARMACEUTICAL COMPOSITION OF A COMPLEX OF AN ANTI-DIG ANTIBODY AND DIGOXIGENIN THAT IS CONJUGATED TO A PEPTIDE” (HOFFMANN-LA ROCHE INC., priority 2011, published 2013).

Experiments:
[1] = biological target: digoxigenated nucleic acids (siRNA-Dig); assay: SPR (Biacore) binding to digoxigenated nucleic acids; conditions: 25° C., read-out: Kd towards digoxigenated nucleic acids (siRNA-Dig)
Protocol: For that, binding properties of the recombinant <Dig> derivatives were analyzed by surface plasmon resonance (SPR) technology using a Biacore T100 or Biacore 3000 instrument (GE Healthcare Bio-Sciences AB, Uppsala). This system is well established for the study of molecule interactions. It allows a continuous real-time monitoring of ligand/analyte bindings and thus the determination of association rate constants (ka), dissociation rate constants (kd), and equilibrium constants (KD) in various assay settings. SPR-technology is based on the measurement of the refractive index close to the surface of a gold coated biosensor chip. Changes in the refractive index indicate mass changes on the surface caused by the interaction of immobilized ligand with analyte injected in solution. […]
Anti-mouse IgG antibody was immobilized on the surface of a CM5 biosensor chip in the same fashion as described above. […] The samples to be analyzed were diluted in HBS-P (10 mM HEPES, pH 7.4, 150 mM NaCl, 0.005% Surfactant P20) and injected at a flow rate of 5 μl/min. […] Signals were detected at a rate of one signal per second. […]
Anti-mouse and anti-human IgG antibodies were immobilized on the surface of a CM5 biosensor chip in the same fashion as described above. The samples to be analyzed were diluted in HBS-P and injected at a flow rate of 5 μl/min. […]

DIG-myoglobin = assay: SPR binding to mono-digoxigenated protein DIG-myoglobin
Protocol: Further SPR studies were performed in which the binding affinity of the humanized <DIG>-IgG, IGF1R-DIG and the murine <DIG>M-19-11 was compared in binding to a mono-digoxigenated protein DIG-myoglobin.

Molecule	Kd [1] [nM]	affinity to DIG-Myo compared with the humanized derivatives (DIG-myoglobin)
humanized DIG-IgG: humanized IgG with the binding specificity of murine <Dig> 19-11 (antibody, V domains shown) VH: QVQLVESGGGLVKPGGSLRLSCAASGFTFSDYAMSWIRQAPGKGLEWVSSINIGATYIYYADSVKGRFTISRDNAKNSLYLQMNSLRAEDTAVYYCARPGSPYEYDKAYYSMAYWGQGTTVTVSS VL: DIQMTQSPSSLSASVGDRVTITCRASQDIKNYLNWYQQKPGKAPKLLIYYSSTLLSGVPSRFSGSGSGTDFTLTISSLQPEDFATYYCQQSITLPPTFGGGTKVEIKR	12	
murine DIG-IgG 19-11: monoclonal murine <Dig> IgG1 kappa antibody from hybridoma clone 19-11 (antibody, V domains shown) VH: EVQLVESGGGLVKPGGSLKLSCAVSGFTFSDYAMSWIRQTPENRLEWVASINIGATYAYYPDSVKGRFTISRDNAKNTLFLQMSSLGSEDTAMYYCARPGSPYEYDKAYYSMAYWGPGTSVTVSS VL: DVQMTQSTSSLSASLGDRVTISCRASQDIKNYLNWYQQKPGGTVKLLIYYSSTLLSGVPSRFSGRGSGTDFSLTITNLEREDIATYFCQQSITLPPTFGGGTKLEIK	0.269	clearly better
